Measurements taken from patent USRE50282 (KAGOSHIMA UNIVERSITY, dated 2025).
Bridges are numbered along the chain shown (N, C = ends). Primed or numbered codes have the meaning given here. Where no end group is shown, it is not given here. The star is where a group is joined. DSS = disuccinimidyl suberate, reactive NHS group, O=C(CCCCCCC(=O)*)ON1C(=O)CCC1=O; DSG = disuccinimidyl glutarate, reactive NHS group, O=C(CCCC(=O)*)ON1C(=O)CCC1=O; Biotin = O=C1N[C@H]2[C@H](CS[C@H]2CCCCC(=O)*)N1; PEG4′ = not defined here

Key:
[1] = target: T1, human IgG Fc (human, UniProt P01857-1 108-330 = IgG part); experiment: X-ray crystallography of the Fc/IgG-binding peptide conjugate
T1 construct: domain: Fc; also called human IgG1 Fc

[2] = target: T2, human serum albumin (human, UniProt P02768 25-609); experiment: covalent labeling reaction, SDS-PAGE and Western blotting with SA-conjugated HRP
T2 construct: also called HSA; HAS

[3] = target: T3, bovine serum albumin (bovine, UniProt P02769 25-607); experiment: ELISA, BSA used as blocking agent, biotinylated peptide detected with SA-HRP
T3 construct: also called BSA
T3 sequence (P02769 25-607 limits assumed): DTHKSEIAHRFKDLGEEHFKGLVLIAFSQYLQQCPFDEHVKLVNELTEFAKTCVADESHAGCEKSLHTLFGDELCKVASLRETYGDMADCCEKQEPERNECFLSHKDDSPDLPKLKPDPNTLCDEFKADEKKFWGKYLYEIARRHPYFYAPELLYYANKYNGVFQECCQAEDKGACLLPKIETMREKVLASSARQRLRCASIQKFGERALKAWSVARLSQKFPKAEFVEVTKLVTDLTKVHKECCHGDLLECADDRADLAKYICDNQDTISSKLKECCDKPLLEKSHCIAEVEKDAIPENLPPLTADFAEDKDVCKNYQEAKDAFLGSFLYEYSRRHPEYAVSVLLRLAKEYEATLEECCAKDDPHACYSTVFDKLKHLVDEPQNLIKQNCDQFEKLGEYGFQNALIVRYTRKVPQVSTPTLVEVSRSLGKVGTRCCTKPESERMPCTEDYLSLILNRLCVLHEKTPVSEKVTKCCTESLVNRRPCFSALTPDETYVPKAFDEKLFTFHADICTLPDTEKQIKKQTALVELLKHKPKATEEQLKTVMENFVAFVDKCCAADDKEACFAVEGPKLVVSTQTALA

binding result [1]	binding result [2]	Binder	binding result [3]
binds		GXDCAYHRGELVWCTXH-NH2 (disulfide 4-14, 2-16; not fully specified (residues 2, 16); printed as G(HC)DCAYHRGELVWCT(HC)H-NH2) [cyclic homocysteine peptide G(HC)DCAYHRGELVWCT(HC)H-NH2]	
	no binding	{Biotin-PEG4′}-GDDCAYHK(DSG)GELVWCTFH-NH2 (disulfide 4-14, also called labeled reagent peptide) [N-terminally biotin-PEG4-added IgG-binding peptide (Type I(R8K)) modified with DSG]	
	no binding	{Biotin-PEG4′}-GDDCAYHK(DSS)GELVWCTFH-NH2 (disulfide 4-14, also called DSS R8K) [N-terminally biotin-PEG4-added IgG-binding peptide (Type I(R8K)) modified with DSS]	no binding (tested: molar ratio up to 10)
